Each block holds one molecule with its values, some of them ahead of it. Non-standard residues stand in square brackets, D forms with d. *: point of attachment. tBuAla = CC(C)(C)C[C@H](N)C(=O)O; 4Pal = N[C@@H](Cc1ccncc1)C(=O)O; dHyp = O=C(O)[C@H]1C[C@H](O)CN1; Cha = N[C@@H](CC1CCCCC1)C(=O)O; Isobutyryl = CC(C)C(=O)*; Iva = CC[C@](C)(N)C(=O)O; Aib = CC(C)(N)C(=O)O
Assays:
[1] = molecular target: human Y2 receptor (human) (UniProt P49146); assay: cell-based or functional assay
[2] = molecular target: human Y2 receptor (human) (UniProt P49146); assay: RBA: displacement of [125I]-PYY from hY2R/CHO membranes

Sequence of human Y2 receptor (human) (P49146 whole entry): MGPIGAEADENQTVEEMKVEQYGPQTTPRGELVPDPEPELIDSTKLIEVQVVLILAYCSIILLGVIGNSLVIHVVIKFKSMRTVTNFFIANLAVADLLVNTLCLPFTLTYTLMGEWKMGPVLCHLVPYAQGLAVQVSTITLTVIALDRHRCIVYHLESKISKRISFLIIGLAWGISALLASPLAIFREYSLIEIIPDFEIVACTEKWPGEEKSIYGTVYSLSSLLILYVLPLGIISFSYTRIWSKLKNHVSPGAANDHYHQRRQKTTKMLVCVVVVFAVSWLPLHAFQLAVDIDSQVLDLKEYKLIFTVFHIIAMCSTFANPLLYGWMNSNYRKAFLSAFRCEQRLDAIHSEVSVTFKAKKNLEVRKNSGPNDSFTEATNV

GBA EC50 Ratio ([35S]GTPγS binding) (EC50 compound/EC50 PYY(3-36)) [1]: 0.83
IC50 Ratio (IC50 compound/IC50 PYY(3-36)) [2]: 1.5
Molecule: Ac-[D-Pro24, Pya(4)26, Cha27,36, Aib28,31, Orn30]-PYY(23-36) (peptide)

GBA EC50 Ratio ([35S]GTPγS binding) (EC50 compound/EC50 PYY(3-36)) [1]: 1.3
IC50 Ratio (IC50 compound/IC50 PYY(3-36)) [2]: 0.52
Molecule: [(1S)-1-carboxy-2-hydroxyethyl]carbamoyl-[D-Pro24, Pya(4)26, Cha27,36, Aib28,31, Lys30]-PYY(23-36) (peptide)

GBA EC50 Ratio ([35S]GTPγS binding) (EC50 compound/EC50 PYY(3-36)) [1]: 0.61
IC50 Ratio (IC50 compound/IC50 PYY(3-36)) [2]: 0.52
Molecule: Tetrahydro-2H-pyran-4-yl-carbamoyl-[D-Pro24, Pya(4)26, Cha27,36, Aib28,31, Lys30]-PYY(23-36) (peptide)

GBA EC50 Ratio ([35S]GTPγS binding) (EC50 compound/EC50 PYY(3-36)) [1]: 0.97
IC50 Ratio (IC50 compound/IC50 PYY(3-36)) [2]: 1.2
Molecule: (3-carboxypropyl)carbamoyl-[D-Pro24, Pya(4)26, Cha27,36, Aib28,31, Lys30]-PYY(23-36) (peptide)

GBA EC50 Ratio ([35S]GTPγS binding) (EC50 compound/EC50 PYY(3-36)) [1]: 2.2
IC50 Ratio (IC50 compound/IC50 PYY(3-36)) [2]: 3.4
B1: Ac-[Glu23, D-Hyp24, Pya(4)26, Cha27,36, Aib28,31, Lys30]-PYY(23-36) (peptide)
peptide: Ac-E[dHyp]R[4Pal][Cha][Aib]NK[Aib]TRQR[Cha]-NH2
SMILES: CC(=O)N[C@@H](CCC(=O)O)C(=O)N1C[C@@H](O)C[C@@H]1C(=O)N[C@@H](CCCNC(=N)N)C(=O)N[C@@H](Cc1ccncc1)C(=O)N[C@@H](CC1CCCCC1)C(=O)NC(C)(C)C(=O)N[C@@H](CC(N)=O)C(=O)N[C@@H](CCCCN)C(=O)NC(C)(C)C(=O)N[C@H](C(=O)N[C@@H](CCCNC(=N)N)C(=O)N[C@@H](CCC(N)=O)C(=O)N[C@@H](CCCNC(=N)N)C(=O)N[C@@H](CC1CCCCC1)C(N)=O)[C@@H](C)O

GBA EC50 Ratio ([35S]GTPγS binding) (EC50 compound/EC50 PYY(3-36)) [1]: 1.9
IC50 Ratio (IC50 compound/IC50 PYY(3-36)) [2]: 2.7
B2: Ac-[Glu23, D-Pro24, Pya(4)26, Cha27,36, Aib28,31, Lys30]-PYY(23-36) (peptide)
peptide: Ac-E[dP]R[4Pal][Cha][Aib]NK[Aib]TRQR[Cha]-NH2
SMILES: CC(=O)N[C@@H](CCC(=O)O)C(=O)N1CCC[C@@H]1C(=O)N[C@@H](CCCNC(=N)N)C(=O)N[C@@H](Cc1ccncc1)C(=O)N[C@@H](CC1CCCCC1)C(=O)NC(C)(C)C(=O)N[C@@H](CC(N)=O)C(=O)N[C@@H](CCCCN)C(=O)NC(C)(C)C(=O)N[C@H](C(=O)N[C@@H](CCCNC(=N)N)C(=O)N[C@@H](CCC(N)=O)C(=O)N[C@@H](CCCNC(=N)N)C(=O)N[C@@H](CC1CCCCC1)C(N)=O)[C@@H](C)O

GBA EC50 Ratio ([35S]GTPγS binding) (EC50 compound/EC50 PYY(3-36)) [1]: 20
IC50 Ratio (IC50 compound/IC50 PYY(3-36)) [2]: 43
B3: Ac-[D-Pro24, Cha27,28,36, Iva30, Aib31]-PYY(23-36) (peptide)
peptide: Ac-S[dP]RH[Cha][Cha]N[Iva][Aib]TRQR[Cha]-NH2
SMILES: CC[C@](C)(NC(=O)[C@H](CC(N)=O)NC(=O)[C@H](CC1CCCCC1)NC(=O)[C@H](CC1CCCCC1)NC(=O)[C@H](Cc1c[nH]cn1)NC(=O)[C@H](CCCNC(=N)N)NC(=O)[C@H]1CCCN1C(=O)[C@H](CO)NC(C)=O)C(=O)NC(C)(C)C(=O)N[C@H](C(=O)N[C@@H](CCCNC(=N)N)C(=O)N[C@@H](CCC(N)=O)C(=O)N[C@@H](CCCNC(=N)N)C(=O)N[C@@H](CC1CCCCC1)C(N)=O)[C@@H](C)O

GBA EC50 Ratio ([35S]GTPγS binding) (EC50 compound/EC50 PYY(3-36)) [1]: 0.9
IC50 Ratio (IC50 compound/IC50 PYY(3-36)) [2]: 1.3
B4: Ac-[Gln23, D-Pro24, Pya(4)26, Cha27,36, Aib28,31, Lys30]-PYY(23-36) (peptide)
peptide: Ac-Q[dP]R[4Pal][Cha][Aib]NK[Aib]TRQR[Cha]-NH2
SMILES: CC(=O)N[C@@H](CCC(N)=O)C(=O)N1CCC[C@@H]1C(=O)N[C@@H](CCCNC(=N)N)C(=O)N[C@@H](Cc1ccncc1)C(=O)N[C@@H](CC1CCCCC1)C(=O)NC(C)(C)C(=O)N[C@@H](CC(N)=O)C(=O)N[C@@H](CCCCN)C(=O)NC(C)(C)C(=O)N[C@H](C(=O)N[C@@H](CCCNC(=N)N)C(=O)N[C@@H](CCC(N)=O)C(=O)N[C@@H](CCCNC(=N)N)C(=O)N[C@@H](CC1CCCCC1)C(N)=O)[C@@H](C)O

GBA EC50 Ratio ([35S]GTPγS binding) (EC50 compound/EC50 PYY(3-36)) [1]: 2.4
IC50 Ratio (IC50 compound/IC50 PYY(3-36)) [2]: 2.5
B5: Ac-[D-Pro24, Pya(4)26, Cha27,36, Aib28,31, Trp30]-PYY(23-36) (peptide)
peptide: Ac-S[dP]R[4Pal][Cha][Aib]NW[Aib]TRQR[Cha]-NH2
SMILES: CC(=O)N[C@@H](CO)C(=O)N1CCC[C@@H]1C(=O)N[C@@H](CCCNC(=N)N)C(=O)N[C@@H](Cc1ccncc1)C(=O)N[C@@H](CC1CCCCC1)C(=O)NC(C)(C)C(=O)N[C@@H](CC(N)=O)C(=O)N[C@@H](Cc1c[nH]c2ccccc12)C(=O)NC(C)(C)C(=O)N[C@H](C(=O)N[C@@H](CCCNC(=N)N)C(=O)N[C@@H](CCC(N)=O)C(=O)N[C@@H](CCCNC(=N)N)C(=O)N[C@@H](CC1CCCCC1)C(N)=O)[C@@H](C)O

GBA EC50 Ratio ([35S]GTPγS binding) (EC50 compound/EC50 PYY(3-36)) [1]: 0.76
IC50 Ratio (IC50 compound/IC50 PYY(3-36)) [2]: 0.38
B6: Ac-[D-Hyp24, Cha27,36, Leu(Me)28, Lys30, Aib31]-PYY(23-36) (peptide)
peptide: Ac-S[dHyp]RH[Cha][tBuAla]NK[Aib]TRQR[Cha]-NH2
SMILES: CC(=O)N[C@@H](CO)C(=O)N1C[C@@H](O)C[C@@H]1C(=O)N[C@@H](CCCNC(=N)N)C(=O)N[C@@H](Cc1c[nH]cn1)C(=O)N[C@@H](CC1CCCCC1)C(=O)N[C@@H](CC(C)(C)C)C(=O)N[C@@H](CC(N)=O)C(=O)N[C@@H](CCCCN)C(=O)NC(C)(C)C(=O)N[C@H](C(=O)N[C@@H](CCCNC(=N)N)C(=O)N[C@@H](CCC(N)=O)C(=O)N[C@@H](CCCNC(=N)N)C(=O)N[C@@H](CC1CCCCC1)C(N)=O)[C@@H](C)O

GBA EC50 Ratio ([35S]GTPγS binding) (EC50 compound/EC50 PYY(3-36)) [1]: 2
IC50 Ratio (IC50 compound/IC50 PYY(3-36)) [2]: 1.9
B7: Isobutanoyl-[Glu23, D-Pro24, Pya(4)26, Cha27,36, Aib28,31, Lys30]-PYY(23-36) (peptide)
peptide: Isobutyryl-E[dP]R[4Pal][Cha][Aib]NK[Aib]TRQR[Cha]-NH2
SMILES: CC(C)C(=O)N[C@@H](CCC(=O)O)C(=O)N1CCC[C@@H]1C(=O)N[C@@H](CCCNC(=N)N)C(=O)N[C@@H](Cc1ccncc1)C(=O)N[C@@H](CC1CCCCC1)C(=O)NC(C)(C)C(=O)N[C@@H](CC(N)=O)C(=O)N[C@@H](CCCCN)C(=O)NC(C)(C)C(=O)N[C@H](C(=O)N[C@@H](CCCNC(=N)N)C(=O)N[C@@H](CCC(N)=O)C(=O)N[C@@H](CCCNC(=N)N)C(=O)N[C@@H](CC1CCCCC1)C(N)=O)[C@@H](C)O

GBA EC50 Ratio ([35S]GTPγS binding) (EC50 compound/EC50 PYY(3-36)) [1]: 0.69
IC50 Ratio (IC50 compound/IC50 PYY(3-36)) [2]: 1.1
B8: Ac-[Thr23, D-Pro24, Pya(4)26, Cha27,36, Aib28,31, Lys30]-PYY(23-36) (peptide)
peptide: Ac-T[dP]R[4Pal][Cha][Aib]NK[Aib]TRQR[Cha]-NH2
SMILES: CC(=O)N[C@H](C(=O)N1CCC[C@@H]1C(=O)N[C@@H](CCCNC(=N)N)C(=O)N[C@@H](Cc1ccncc1)C(=O)N[C@@H](CC1CCCCC1)C(=O)NC(C)(C)C(=O)N[C@@H](CC(N)=O)C(=O)N[C@@H](CCCCN)C(=O)NC(C)(C)C(=O)N[C@H](C(=O)N[C@@H](CCCNC(=N)N)C(=O)N[C@@H](CCC(N)=O)C(=O)N[C@@H](CCCNC(=N)N)C(=O)N[C@@H](CC1CCCCC1)C(N)=O)[C@@H](C)O)[C@@H](C)O

GBA EC50 Ratio ([35S]GTPγS binding) (EC50 compound/EC50 PYY(3-36)) [1]: 1.3
IC50 Ratio (IC50 compound/IC50 PYY(3-36)) [2]: 0.8
B9: Ac-[Glu23, D-Hyp24, Cha27,28,36, Lys30, Aib31]-PYY(23-36) (peptide)
peptide: Ac-E[dHyp]RH[Cha][Cha]NK[Aib]TRQR[Cha]-NH2
SMILES: CC(=O)N[C@@H](CCC(=O)O)C(=O)N1C[C@@H](O)C[C@@H]1C(=O)N[C@@H](CCCNC(=N)N)C(=O)N[C@@H](Cc1c[nH]cn1)C(=O)N[C@@H](CC1CCCCC1)C(=O)N[C@@H](CC1CCCCC1)C(=O)N[C@@H](CC(N)=O)C(=O)N[C@@H](CCCCN)C(=O)NC(C)(C)C(=O)N[C@H](C(=O)N[C@@H](CCCNC(=N)N)C(=O)N[C@@H](CCC(N)=O)C(=O)N[C@@H](CCCNC(=N)N)C(=O)N[C@@H](CC1CCCCC1)C(N)=O)[C@@H](C)O

Source: US20120172293A1 (Takeda / Millennium, published 2012)
